Patent US20260234269
Numbering of substitutions follows the chain as printed.

B1: 4G2.2G6 (protein)
chain 1: QIQLVQSGPDLKKPGETVKISCKASGYTFTTYVMSWVKQAPGKDLKWMGWINTHSGVPTYADDFKGRFDFSLETSANTAFLQINNLKNEDTATYFCTRDGNDGDAMDNWGQGTSVTVSS
chain 2: not shown
B2: 15G7.2A7 (protein)
chain 1: EVQLQQSGPELVKPGASVKISCKASGYTFTDYYMNWVKQSHGKSLEWIGDINPNNGGTNYNQKFKGKATLTVDKSSSTAYMELRSLTSEDSAVYYCTSGYGFPYWGQGTLVTVSA
chain 2: DIQMNQSPSSLSASLGDTISITCRASQNINIWLSWYQQKPGNIPQLLIYKASNLHTGVPSRFSGSGSGTDFTLTISSLQPEDIATYYCLQGQSYPLTFGAGTKLVMK
B3: 20D11.2C6 (protein)
chain 1: B2 chain 1 with Y32F, M34I, N54K, T58I, Q62P, G66I, A79S, E82D, S85G
chain 2: B2 chain 2 with S20T, N30Y, Q45K, S77T, Y87F, V105E
B4: 13H12.2F8 (protein)
chain 1: QIQLVQSGPELKKPGETVKISCKASGYTFTTYGMSWVKQAPGKGLKWMGWINTYSGVPTYADDFKGRFAFSLETSASTAYLQINNLKNEDTATYFCAVPYEYDGAYWGQGTLVTVSA
chain 2: not shown
B5: 19D9.2E5 (protein)
chain 1: B4 chain 1 with S35G, A76T, T91M, V98T
chain 2: not shown
B6: 14H10.2C9 (protein)
chain 1: B4 chain 1 with S35G, G44D, N84S, A97S, V98T
chain 2: not shown
B7: 2D10.2B2 (protein)
chain 1: QVQLQQSGPELVKPGASVKISCKASGYTFTDYYINWVKQRPGQGLEWIGWIYPGSNDTKYNEKFKGKATLTVDTSSSTAYMQLGSLTSEDSAVYFCANYFGCSGWFFDVWGTGTTVTVSS
chain 2: DIVMTQAAFSNPVTLGTSASISCRSSKSLLHSDGITYLYWYLQRPGQSPQLLIYRMSNLASGVPDRFSGSGSGTDFTLRISRVEAEDVGVYYCAQMIEFPLTFGAGTILELK
B8: 4A11.2B5 (protein)
chain 1: QVQLQQSGPELVKPGASVKISCKASGYSFTNYYIHWVKQRPGQGLEWIGWIYPGSGNTNYNEKFKGKATLTADTSSSTTNMQLSSLTSEDSAVYYCSTAPGGFDVWGSGTTVTVSS
chain 2: B7 chain 2 with I97L, I108K
B9: 6H6.2D6 (protein)
chain 1: QIQLVQSGPELKKPGETVKISCKASGYTFTTYGMSWVKQAPGKGLKWMAWINTYSGVPTYADDFKGRFAFSLETSASTAYLQINNLTNEDTATYFCARGPYAMDYWGQGTSVTVSS
chain 2: DIQMTQTTSSLSASLGDRVTISCSASQGISNYLNWYQQKPDGTVKLLIYYTSSLHSGVPSRFSGSGSGTDYSLTISNLEPEDIATYYCQQYSELPYTFGSGTKLEIK
B10: 23H9.2E4 (protein)
chain 1: B9 chain 1 with G33A, A49G, F64L, T87K
chain 2: B9 chain 2 with S30N, T51A, E93Q, L94V
B11: 19B5.2E6 (protein)
chain 1: B9 chain 1 with G33A, A49G, F64L, T87K
chain 2: B9 chain 2 with S30N, T51A, E93Q, L94V
B12: 20H5.A3 (protein)
chain 1: B9 chain 1 with T17S, T28A, K38Q, A49G, I51V, Y60C, T87R
chain 2: B9 chain 2 with S22N, G28D, H55L, Y87F, E93K, K103H
B13: 13A12.2E5 (protein)
chain 1: QIQLVQSGPELKKPGETVKISCKTSGYKFKTYVMSWVKQAPGKALKWMGWINTYSGVPTYADDFKGRFAFSLETSASTAYLEIINLKNEDTATYFCARDGNYGDPMDYWGQGTSVTVSS
chain 2: DVVMTQTPLTLSVAIGQPASISCKSSQSLLYTNGKTYLNWLLQRPGQSPKRLIYLLSKLDSGVPDRFSASGSGTDFTLKISRVEAEDLGVYYCLQSTHFPLTFGAGTKLEMK
B14: 3B11.2G2 (protein)
chain 1: B13 chain 1
chain 2: not shown
B15: 846.2H3 (protein)
chain 1: QIQLVQSGPELKKPGETVKISCKASGYTFTNYGMNWVKQAPGKGLKWMGWINTYTGEPSYADDFKGRFAFSLETSASTAYLQINNLKNEDMATYFCARWGGYDGDYYAMDYWGQGTSVTVSS
chain 2: NIMMTQSPSSLAVSAGEKVTMSCKSSQSVLYSSNQKNYLAWYQQKPGQSPKLLIYWASTRESGVPDRFTGSGSGTDFTLTISSVQPEDLAVYYCHQYLSSLTFGAGTKLELK
B16: 846.1F5 (protein)
chain 1: B15 chain 1
chain 2: B15 chain 2
B17: mIMT001 (IMT001) (protein)
chain 1: QIQLVQSGPELKKPGETVKISCKASGYTFTNYGMNWVKQAPGKGLKWMGWINTNTGEPTYVEEFKGRFAFSLETSASTAYLQINNLKNEDTATYFCAPYDNFFAYWGQGTLVTVSA
chain 2: DIVITQDELSNPVTSGESVSISCRSSKSLLYKDGKTYLNWFLQRPGQSPQLLIYLMSTHASGVSDRFSGSGSGTDFTLEISRVKAEDVGVYYCQQLVDYPLTFGAGTKLELK
B18: 846T.1H2 (protein)
chain 1: QIQLVQSGPELKKPGETVKISCKASGYTFTNYGMNWVKQAPGKGLKWMGWINTNTGEPTYAEEFKGRFAFSLETSASTAYLQINNLKNEDTATYFCATGGGNWDFDYWGQGTTLTVSS
chain 2: not shown

Biological target: Human Galectin-3 protein (Acro Biosystems, GA3-H5129)
Experiment: ELISA, hGal3 coated, competitor hTIM3 (FIG. 24)

| Protein | GAL3-TIM3 assembly, % of level without antibody |
| --- | --- |
| B1 | to 50-75% of levels observed in the absence of a GAL3-targeted antibody |
| B2 | to 50-75% of levels observed in the absence of a GAL3-targeted antibody |
| B3 | to 50-75% of levels observed in the absence of a GAL3-targeted antibody |
| B4 | to 20-50% of levels observed in the absence of a GAL3-targted antibody |
| B5 | to 50-75% of levels observed in the absence of a GAL3-targeted antibody |
| B6 | to 50-75% of levels observed in the absence of a GAL3-targeted antibody |
| B7 | to 5-20% of levels observed in the absence of a GAL3-targeted antibody |
| B8 | to 50-75% of levels observed in the absence of a GAL3-targeted antibody |
| B9 | to 5-20% of levels observed in the absence of a GAL3-targeted antibody |
| B10 | to 20-50% of levels observed in the absence of a GAL3-targted antibody |
| B11 | to 20-50% of levels observed in the absence of a GAL3-targted antibody |
| B12 | to 5-20% of levels observed in the absence of a GAL3-targeted antibody |
| B13 | to 50-75% of levels observed in the absence of a GAL3-targeted antibody |
| B14 | to 50-75% of levels observed in the absence of a GAL3-targeted antibody |
| B15 | to less than 5% of levels observed in the absence of a GAL3-targeted antibody |
| B16 | to 5-20% of levels observed in the absence of a GAL3-targeted antibody |
| B17 | to 5-20% of levels observed in the absence of a GAL3-targeted antibody |
| B18 | to 5-20% of levels observed in the absence of a GAL3-targeted antibody |
